The values below come from PMC7195491.

Experiment [1] has as its target DIP-γ (Drosophila melanogaster). Description: SPR; Biacore T100, CM4 chip; DIPs and DIP mutants immobilised by amine coupling (760-980 RU), Dprs and Dpr mutants as analytes (three-fold dilution series, up to 81 μM, in some cases up to 27 or 9 μM); 25 °C; 10 mM Tris-HCl pH 7.2, 150 mM NaCl, 1 mM EDTA, 1 mg/mL BSA, 0.01% Tween-20; equilibrium fit, 1:1 model; for KDs > 300 μM a lower limit is listed. (In general: SPR reads the build-up and loss of mass on a sensor chip optically.)

Experiment [2] concerns the target DIP-γ mutant at position 9 (Drosophila melanogaster). The experiment is described as above.
The target of experiment [3] is DIP-γ (Dpr Interacting Protein gamma), extracellular region (Drosophila melanogaster) (UniProt Q9VAR6). Description: SPR; Biacore T100, CM4 chip; DIPs and DIP mutants immobilised by amine coupling, Dprs as analytes; 25 °C; 10 mM Tris-HCl pH 7.2, 150 mM NaCl, 1 mM EDTA, 1 mg/mL BSA, 0.01% Tween-20; duplicate responses fit globally to a 1:1 model; Rmax fixed for KDs > 100 μM, lower limit listed for KDs > 300 μM.
Sequence of DIP-γ (Dpr Interacting Protein gamma), extracellular region (Drosophila melanogaster) (Q9VAR6 entry or part of it): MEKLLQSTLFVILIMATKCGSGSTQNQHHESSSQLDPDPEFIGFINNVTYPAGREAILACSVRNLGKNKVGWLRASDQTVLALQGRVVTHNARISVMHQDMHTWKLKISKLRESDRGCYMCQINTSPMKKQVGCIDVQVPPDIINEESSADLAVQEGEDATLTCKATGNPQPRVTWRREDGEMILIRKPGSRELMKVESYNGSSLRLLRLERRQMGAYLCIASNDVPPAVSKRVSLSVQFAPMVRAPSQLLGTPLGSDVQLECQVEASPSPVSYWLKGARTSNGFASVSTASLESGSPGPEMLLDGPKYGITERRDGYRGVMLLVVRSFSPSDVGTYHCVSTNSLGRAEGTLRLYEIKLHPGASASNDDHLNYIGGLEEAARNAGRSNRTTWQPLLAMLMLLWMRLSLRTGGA

Experiment [4] deals with DIP-γ R15N {R86N}, extracellular region (Drosophila melanogaster) (UniProt Q9VAR6). The experiment is described as above.
Sequence of DIP-γ R15N {R86N}, extracellular region (Drosophila melanogaster) (Q9VAR6 entry or part of it R15N {R86N} | R15N R86N): as the sequence (Q9VAR6 entry or part of it) above, with R86N counted along it
The target of experiment [5] is DIP-γ R22S {R112S}, extracellular region (Drosophila melanogaster) (UniProt Q9VAR6). The experiment is described as above.
Sequence of DIP-γ R22S {R112S}, extracellular region (Drosophila melanogaster) (Q9VAR6 entry or part of it R22S {R112S} | R22S R112S): as the sequence (Q9VAR6 entry or part of it) above, with R112S counted along it
The target of experiment [6] is DIP-α (Dpr Interacting Protein alpha), extracellular region (Drosophila melanogaster) (UniProt Q9W4R3). Described as above.
Experiment [7] addresses DIP-β (isoformG), extracellular region (Drosophila melanogaster). The experiment is described as above.
For experiment [8], the target named is DIP-γ (Dpr Interacting Protein gamma), extracellular region (Drosophila melanogaster) (UniProt Q9VAR6). Described as above. This is another data set of the same source.
In experiment [9] the target is DIP-α (Dpr Interacting Protein alpha), extracellular region (Drosophila melanogaster) (UniProt Q9W4R3). The experiment is described as above. The source holds these as a separate data set.
Experiment [10] deals with DIP-α A11T {A82T}, extracellular region (Drosophila melanogaster) (UniProt Q9W4R3). Described as above.
Experiment [11] concerns the target DIP-α A7K {A78K}, extracellular region (Drosophila melanogaster) (UniProt Q9W4R3). The experiment is described as above.
The target of experiment [12] is DIP-α G4A {G74A}, extracellular region (Drosophila melanogaster) (UniProt Q9W4R3). The description is as above.
Experiment [13] deals with DIP-α G4L {G74L}, extracellular region (Drosophila melanogaster) (UniProt Q9W4R3). The description is as above.
Experiment [14] addresses DIP-α I16A {I91A}, extracellular region (Drosophila melanogaster) (UniProt Q9W4R3). The description is as above.
For experiment [15], the target named is DIP-α K10Q D29S {K81Q D129S}, extracellular region (Drosophila melanogaster) (UniProt Q9W4R3). The description is as above.
The target in experiment [16] is DIP-α K10Q G4S {K81Q G74S}, extracellular region (Drosophila melanogaster) (UniProt Q9W4R3). The experiment is described as above.
Experiment [17] concerns the target DIP-α K10Q S32D {K81Q S133D}, extracellular region (Drosophila melanogaster) (UniProt Q9W4R3). The description is as above.
Experiment [18] has as its target DIP-α K10Q {K81Q}, extracellular region (Drosophila melanogaster) (UniProt Q9W4R3). Described as above.
In experiment [19] the target is DIP-α N19D {N94D}, extracellular region (Drosophila melanogaster) (UniProt Q9W4R3). Described as above.

Several values for one entry are separate records, joined by “and”; a condition that tells them apart may be missing. Equal values may be shown once. Read-outs that look alike come from different tables or passages of the source. Some results are limits rather than exact numbers.

In general, Kd refers to a measure of binding affinity in units of concentration. For the substance Dpr11 (domain or fragment), the results for the Kd in experiment [1] and in [2] were 7.9 µM and 37.2 µM, respectively.

Turning to “Dpr11 (Defective proboscis extension response 11), extracellular region (from UniProt Q8MRE6 1-360) (domain or fragment)”, the Kd in [3] is 8.54 µM and 7.12 µM; in [4], 13.1 µM; in experiment [5] it was 9.5 µM; in [6], more than 500 µM; in experiment [7], 270 µM; in experiment [8], 7.15 µM.

Take “Dpr10 (Defective proboscis extension response 10), extracellular region (from UniProt M9PF17 1-362) (domain or fragment)”: the Kd in [9] is 1.4 µM; in experiment [10], 18.1 µM; in experiment [11] it was 0.28 µM; in [12], 0.9 µM; in [13], 45.8 µM; in [14] it was 56.9 µM. The Kd in experiment [15] came to 41.6 µM; in [16], 68 µM; in experiment [17], 39.1 µM; in experiment [18], 31.8 µM; in experiment [19] it was 1.4 µM; in experiment [6], 1.3 µM. This substance also displayed a Kd in [7] of 33.3 µM.
